Experimental data: PMC10053435, “Crystal structures of dimeric and heptameric mtHsp60 reveal the mechanism of chaperonin inactivation” (Life Science Alliance, 2023)

B1: naïve EcHsp60^ΔC (C-terminal GGM repeats truncated, Δ527–552) (domain or fragment)
chain: MFRLPTVMKQVRPVCRALAPHLTRAYAKDVKFGADARALMLQGVDLLADAVAVTMGPKGRTVIIEQSWGSPKVTKDGVTVAKSIDLKDKYKNIGAKLVQDVANNTNEEAGDGTTTATVLARAIAKEGFDTISKGANPVEIRRGVMMAVETVIKELKNLSKPVTTPEEIAQVATISANGDVEIGNIISNAMKKVGRKGVITVKDGKTLHDELEIIEGMKFDRGYISPYFINTAKGQKCEFQDAYLLLSEKKISSVQSIVPALEIANQHRKPLVIVAEDVDGEALSTLVLNRLKVGLQVVAVKAPGFGDNRKNQLRDMAVATGGTVFGDEAVGLALEDIQAHDFGKIGEVQITKDDTLLLKGGGSPAEVEKRAAEIVEQLENTTSDYEKEKLNERLAKLSDGVAVLKVGGTSDVEVNEKKDRVTDALNATRAAVEEGIVPGGGCALLRCIPSLDAIQTANADQKIGVEIIRRALRIPAMTIAKNAGVEGSLVVEKILQGSAELGYDAMQGEYVNMVEKGIIDPTKVVRTALLDAAGVASLLSTAEAVVTEIPKE
B2: naïve Epinephelus coioides mtHsp60 (EcHsp60), with the mitochondrial importing signal (natural protein)
chain: MFRLPTVMKQVRPVCRALAPHLTRAYAKDVKFGADARALMLQGVDLLADAVAVTMGPKGRTVIIEQSWGSPKVTKDGVTVAKSIDLKDKYKNIGAKLVQDVANNTNEEAGDGTTTATVLARAIAKEGFDTISKGANPVEIRRGVMMAVETVIKELKNLSKPVTTPEEIAQVATISANGDVEIGNIISNAMKKVGRKGVITVKDGKTLHDELEIIEGMKFDRGYISPYFINTAKGQKCEFQDAYLLLSEKKISSVQSIVPALEIANQHRKPLVIVAEDVDGEALSTLVLNRLKVGLQVVAVKAPGFGDNRKNQLRDMAVATGGTVFGDEAVGLALEDIQAHDFGKIGEVQITKDDTLLLKGGGSPAEVEKRAAEIVEQLENTTSDYEKEKLNERLAKLSDGVAVLKVGGTSDVEVNEKKDRVTDALNATRAAVEEGIVPGGGCALLRCIPSLDAIQTANADQKIGVEIIRRALRIPAMTIAKNAGVEGSLVVEKILQGSAELGYDAMQGEYVNMVEKGIIDPTKVVRTALLDAAGVASLLSTAEAVVTEIPKEEKEMPGGMGGMGGMGGMGGMGGGMGF

Assays:
[1] = target: the molecule itself; assay: SEC; protein homogenised and purified at 4°C (LT); Superdex S200pg 16/600, 25 mM Tris-HCl pH 7.6, 150 mM NaCl, 1 ml/min
[2] = target: the molecule itself; assay: SEC; protein homogenised and purified at room temperature (RT, 25°C); Superdex S200pg 16/600, 25 mM Tris-HCl pH 7.6, 150 mM NaCl, 1 ml/min

Row | Protein | stoichiometry N [1] | stoichiometry N [2]
1 | B1 | 7 | –
2 | B2 | 2 | 7
